According to patent US7514408:

Biological target: β-secretase (enzyme preparation not stated for the inhibitor assays) (human) (UniProt P56817)
Assay: cell-based or functional assay

Chain of β-secretase (enzyme preparation not stated for the inhibitor assays) (human) (P56817 46-501 limits assumed): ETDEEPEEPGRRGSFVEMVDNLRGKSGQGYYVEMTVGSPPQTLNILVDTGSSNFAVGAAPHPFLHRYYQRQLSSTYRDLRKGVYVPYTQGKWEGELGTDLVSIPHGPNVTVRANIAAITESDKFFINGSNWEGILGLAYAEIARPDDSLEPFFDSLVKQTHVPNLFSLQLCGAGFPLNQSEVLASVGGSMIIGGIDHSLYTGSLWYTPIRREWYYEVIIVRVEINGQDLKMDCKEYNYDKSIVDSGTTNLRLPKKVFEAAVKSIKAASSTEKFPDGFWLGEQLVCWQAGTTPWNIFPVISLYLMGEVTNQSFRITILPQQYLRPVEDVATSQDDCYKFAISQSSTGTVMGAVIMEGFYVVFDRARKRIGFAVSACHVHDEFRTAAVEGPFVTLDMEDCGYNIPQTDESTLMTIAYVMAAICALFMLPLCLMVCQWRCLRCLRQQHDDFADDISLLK

IC50 in an MBP M125 assay (inhibition of β-secretase activity): 3000 nM
enzyme inhibition relative to the Swedish sequence: 100 times
Substance: Swedish mutant P13-P5′ peptide with P1′ aspartic acid replaced with a valine (D→V) (from UniProt P05067 659-676)
